Assay results taken from the supplement of paper PMC9112550, “Optimization of the antimicrobial peptide Bac7 by deep mutational scanning” (BMC Biology, 2022).

System: Escherichia coli TOP10
Assay: shrunken log2 fold change of peptide-encoding DNA abundance (4.5 h post-induction vs induction); higher = less antimicrobial activity (less host growth inhibition)
Conditions: time post-induction: 4.5 h; library: site-saturation at positions 5, 18, 19, 20
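Note: peptides expressed intracellularly from a pBAD plasmid library in pooled LB shake-flask culture, induced with 0.3% L-arabinose, DNA abundance read by NGS, three biological replicates, DESeq2 with apeglm shrinkage.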

| Sequence | shrunken log2 fold change |
| --- | --- |
| RRIRVRPPRLPRPRPRPDEGPRP | 0.0672 |
| RRIRVRPPRLPRPRPRPDFAPRP | 0.147 |
| RRIRVRPPRLPRPRPRPDFKPRP | 0.0385 |
| RRIRVRPPRLPRPRPRPDGCPRP | 0.101 |
| RRIRVRPPRLPRPRPRPDHTPRP | -0.428 |
| RRIRVRPPRLPRPRPRPDKQPRP | -0.284 |
| RRIRVRPPRLPRPRPRPDKWPRP | -0.151 |
| RRIRVRPPRLPRPRPRPDLQPRP | 0.00798 |
| RRIRVRPPRLPRPRPRPDNEPRP | -0.185 |
| RRIRVRPPRLPRPRPRPDPEPRP | -0.0984 |
| RRIRVRPPRLPRPRPRPDRDPRP | 0.0414 |
| RRIRVRPPRLPRPRPRPDRGPRP | -0.0555 |
| RRIRVRPPRLPRPRPRPDRNPRP | -0.162 |
| RRIRVRPPRLPRPRPRPDSAPRP | 0.0792 |
| RRIRVRPPRLPRPRPRPDSLPRP | -0.416 |
| RRIRVRPPRLPRPRPRPDSSPRP | -0.0452 |
| RRIRVRPPRLPRPRPRPDTHPRP | -0.214 |
| RRIRVRPPRLPRPRPRPDTRPRP | -0.129 |
| RRIRVRPPRLPRPRPRPDVMPRP | -0.00879 |
| RRIRVRPPRLPRPRPRPECKPRP | 0.0339 |
| RRIRVRPPRLPRPRPRPEELPRP | -0.0522 |
| RRIRVRPPRLPRPRPRPEFQPRP | -0.0311 |
| RRIRVRPPRLPRPRPRPEFRPRP | 0.463 |
| RRIRVRPPRLPRPRPRPEHHPRP | -0.334 |
| RRIRVRPPRLPRPRPRPEHNPRP | -0.244 |

| Sequence | shrunken log2 fold change |
| --- | --- |
| RRIRVRPPRLPRPRPRPEKAPRP | -0.114 |
| RRIRVRPPRLPRPRPRPEKKPRP | -0.0337 |
| RRIRVRPPRLPRPRPRPEKRPRP | -0.218 |
| RRIRVRPPRLPRPRPRPELDPRP | 0.183 |
| RRIRVRPPRLPRPRPRPEPEPRP | 0.515 |
| RRIRVRPPRLPRPRPRPEQGPRP | 0.0379 |
| RRIRVRPPRLPRPRPRPEREPRP | 0.586 |
| RRIRVRPPRLPRPRPRPERRPRP | 0.13 |
| RRIRVRPPRLPRPRPRPESWPRP | 0.28 |
| RRIRVRPPRLPRPRPRPETHPRP | -0.0797 |
| RRIRVRPPRLPRPRPRPETTPRP | 0.348 |
| RRIRVRPPRLPRPRPRPETYPRP | -0.316 |
| RRIRVRPPRLPRPRPRPEVAPRP | 1.82 |
| RRIRVRPPRLPRPRPRPEVFPRP | 0.0748 |
| RRIRVRPPRLPRPRPRPEVRPRP | 0.0429 |
| RRIRVRPPRLPRPRPRPEVYPRP | -0.0457 |
| RRIRVRPPRLPRPRPRPEWIPRP | -0.0835 |
| RRIRVRPPRLPRPRPRPEYSPRP | -0.273 |
| RRIRVRPPRLPRPRPRPFDMPRP | -0.16 |
| RRIRVRPPRLPRPRPRPFDTPRP | -0.847 |
| RRIRVRPPRLPRPRPRPFFWPRP | 0.395 |
| RRIRVRPPRLPRPRPRPFGQPRP | -0.222 |
| RRIRVRPPRLPRPRPRPFGVPRP | -0.179 |
| RRIRVRPPRLPRPRPRPFIAPRP | -0.448 |
| RRIRVRPPRLPRPRPRPFITPRP | -0.334 |

| Sequence | shrunken log2 fold change |
| --- | --- |
| RRIRVRPPRLPRPRPRPFKFPRP | -0.0599 |
| RRIRVRPPRLPRPRPRPFKYPRP | -0.0213 |
| RRIRVRPPRLPRPRPRPFLEPRP | 0.0733 |
| RRIRVRPPRLPRPRPRPFLLPRP | -0.769 |
| RRIRVRPPRLPRPRPRPFLPPRP | -0.198 |
| RRIRVRPPRLPRPRPRPFMLPRP | -0.279 |
| RRIRVRPPRLPRPRPRPFMWPRP | -0.327 |
| RRIRVRPPRLPRPRPRPFPFPRP | -0.199 |
| RRIRVRPPRLPRPRPRPFPNPRP | 0.038 |
| RRIRVRPPRLPRPRPRPFQVPRP | -0.0887 |
| RRIRVRPPRLPRPRPRPFQYPRP | -0.453 |
| RRIRVRPPRLPRPRPRPFSLPRP | -0.348 |
| RRIRVRPPRLPRPRPRPFTEPRP | -0.423 |
| RRIRVRPPRLPRPRPRPFVLPRP | -0.322 |
| RRIRVRPPRLPRPRPRPFVMPRP | 0.0296 |
| RRIRVRPPRLPRPRPRPFWLPRP | 0.234 |
| RRIRVRPPRLPRPRPRPFWNPRP | -0.00518 |
| RRIRVRPPRLPRPRPRPGAIPRP | 0.0707 |
| RRIRVRPPRLPRPRPRPGAYPRP | -0.0376 |
| RRIRVRPPRLPRPRPRPGCYPRP | -0.112 |
| RRIRVRPPRLPRPRPRPGDEPRP | 0.122 |
| RRIRVRPPRLPRPRPRPGDHPRP | -0.0257 |
| RRIRVRPPRLPRPRPRPGDIPRP | -0.264 |
| RRIRVRPPRLPRPRPRPGEAPRP | 0.474 |
| RRIRVRPPRLPRPRPRPGEMPRP | 0.329 |
